The values below come from US20090239215A1.

The test addresses MBP-MT2 fusion protein (maltose binding protein fused to two copies of metallothionein), without gold (mouse) (UniProt P02802). Briefly: STEM mass measurement (PCMass25); expected 260 kDa for the antibody with two MBP-MT2.
Chain of UniProt P02802 (P02802 other isoform, or with tags, fused parts or gaps): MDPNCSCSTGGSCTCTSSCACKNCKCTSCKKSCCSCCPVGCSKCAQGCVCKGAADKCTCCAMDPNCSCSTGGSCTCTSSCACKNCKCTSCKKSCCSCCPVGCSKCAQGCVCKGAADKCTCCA

“commercially available monoclonal IgG2a MBP antibody (New England Biolabs)” yielded a mean STEM mass of the antibody complex particles of 205 kDa.
